According to article PMC7660097:

Key:
[1] = target: human plasminogen (human); test: ELISA; microplate ligand-binding assay, semi-quantitative: 3 pmol human protein immobilised per MaxiSorp well, blocked with 3% BSA; biotin-labeled enolase 10-500 nM in PBS, 1.5 h, 37 °C; detection with SA-HRP/TMB; BSA-only wells subtracted
[2] = target: human vitronectin (human) (UniProt P04004); test: as above
[3] = target: human fibronectin (human); test: as above
[4] = target: C. albicans cell surface-exposed enolase (C. albicans) (UniProt P30575); test: SPR; BIACORE 3000; enolase amine-coupled to a CM5 chip (about 300 RU); human protein as analyte (40-750 nM or 75-750 nM), 30 µL/min, 25 °C, 10 mM HEPES, 150 mM NaCl, 0.005% P20, pH 7.4; 1:1 Langmuir global fit with baseline drift and local Rmax; regeneration 1 M NaCl
[5] = target: C. tropicalis cytosolic enolase (C. tropicalis) (UniProt C5MD83); test: as above
[6] = target: C. albicans cytosolic enolase (C. albicans) (UniProt P30575); test: as above
[7] = target: C. albicans cytosolic enolase (C. albicans) (UniProt P30575); test: ELISA; competition in a microplate: VTR immobilised (3 pmol per well); 40 nM biotinylated C. albicans enolase and 400 nM unlabeled HPG added together in PBS, 1.5 h, 37 °C; SA-HRP/TMB; also with 5 mM Mg2+ (no effect)

Chain of human vitronectin (human) (P04004 20-478): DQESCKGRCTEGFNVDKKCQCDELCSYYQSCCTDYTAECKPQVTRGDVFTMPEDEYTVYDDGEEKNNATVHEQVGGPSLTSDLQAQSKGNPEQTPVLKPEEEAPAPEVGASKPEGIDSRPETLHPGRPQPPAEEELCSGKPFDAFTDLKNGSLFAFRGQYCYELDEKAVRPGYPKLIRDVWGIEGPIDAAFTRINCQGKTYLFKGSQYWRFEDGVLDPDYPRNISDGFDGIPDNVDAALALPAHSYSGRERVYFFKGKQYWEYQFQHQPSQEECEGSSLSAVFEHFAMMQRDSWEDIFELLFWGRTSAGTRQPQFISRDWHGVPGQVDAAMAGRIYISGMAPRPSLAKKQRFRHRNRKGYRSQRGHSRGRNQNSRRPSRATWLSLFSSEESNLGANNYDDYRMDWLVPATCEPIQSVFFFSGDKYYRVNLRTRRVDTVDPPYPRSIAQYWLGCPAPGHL

Substance | reduction in binding compared to R-Eno [1] | reduction in binding compared to R-Eno [2] | reduction in binding compared to R-Eno [3] | Kd [4] | koff [4] | kon [4] | Kd [5] | koff [5] | kon [5] | Kd [6] | koff [6] | kon [6] | reduction of the binding of biotinylated enolase to immobilized VTR [7]
recombinant C. albicans enolase with the 235-255 sequence of S. cerevisiae enolase (R-Enosc) (from UniProt P30575 1-440) (enzyme) | > 50% | > 50% | > 50% | – | – | – | – | – | – | – | – | – | –
human plasminogen (natural protein) | – | – | – | 120 nM | 0.0626 s⁻¹ | 522000 M⁻¹ s⁻¹ | 253 nM | 0.0146 s⁻¹ | 57700 M⁻¹ s⁻¹ | 257 nM | 0.0693 s⁻¹ | 270000 M⁻¹ s⁻¹ | 50%
human fibronectin (natural protein) | – | – | – | 36.8 nM | 0.00222 s⁻¹ | 60300 M⁻¹ s⁻¹ | 51.8 nM | 0.00284 s⁻¹ | 54800 M⁻¹ s⁻¹ | 42.8 nM | 0.0277 s⁻¹ | 647000 M⁻¹ s⁻¹ | –
